# Measured values published in the RNAGym collection of RNA variant scans (doi:10.7554/elife.80360).
# B1: CPEB3 Ribozyme (parent)
# chain: GGGGGCCACAGCAGAAGCGUUCACGUCGCGGCCCCUGUCAGAUUCUGGUGAAUCUGCGAAUUCUGCUGU
# Variants of: B1
# Experiment: self-cleavage, relative activity (ratio to wild type); higher = more cleavage; co-transcriptional
row,Variant,self-cleavage
1,G28U C66G,0.16
2,G28U C66A,0.153
3,G28U C66U,0.168
4,G28U U43C,0.176
5,C29A G50A,0.735
6,C29A G50U,0.747
7,C29A G68C,0.914
8,C29A G68U,0.903
9,G28U U55A,0.203
10,G28U U55C,0.154
11,C29G C32A,0.196
12,C29G C32G,0.18
13,G28U G50C,0.183
14,G28U G50A,0.237
15,G28U U67C,0.224
16,G28U U67A,0.168
17,G28U U67G,0.203
18,C29A C54A,0.312
19,C29A U44A,0.55
20,C29G,0.618
21,C29A,0.777
22,G28U C57U,0.213
23,C29A U55C,0.38
24,C29A U55A,0.273

row,Variant,self-cleavage
1,G28U C45A,0.189
2,G28U C45U,0.168
3,C29A A42C,0.409
4,C29A A42G,0.533
5,C29A A42U,0.517
6,C29A A60U,0.257
7,C29G A59U,0.203
8,C29G A59C,0.272
9,G28U U36C,0.135
10,C29G C45G,0.407
11,C29G C45A,0.402
12,G28U U61G,0.221
13,G28U U61C,0.11
14,G28U U49C,0.178
15,G28U U49A,0.166
16,G28U U49G,0.11
17,C29A U62C,0.644
18,C29A U62A,0.409
19,C29A U49C,0.809
20,C29A U49G,0.737
21,G28U U44G,0.175
22,C29A U53A,0.46
23,C29A U53C,0.356
24,C29A U53G,0.454

row,Variant,self-cleavage
1,C29A C66U,0.664
2,C29A C66G,0.365
3,G28U G37C,0.172
4,G28U G37U,0.166
5,C29A U69C,0.973
6,G28U G65C,0.132
7,G28U U64G,0.147
8,G28U U64A,0.157
9,G28U U69G,0.254
10,C29A C34U,0.702
11,C29A C34A,0.334
12,C29A C34G,0.22
13,C29A G41C,0.195
14,C29A C35U,0.496
15,C29A C35G,0.276
16,C29A G47U,0.817
17,C29A G47C,0.716
18,C29A C39U,0.372
19,C29A C39G,0.431
20,G28U C63G,0.254
21,G28U C63U,0.187
22,G28U C63A,0.189
23,C29A G37U,0.147
24,C29A G37C,0.186

row,Variant,self-cleavage
1,C29G C35A,0.234
2,C29G C35U,0.307
3,C29G C35G,0.301
4,G28U G31U,0.171
5,G28U G31C,0.141
6,C29A A52U,0.671
7,C29A A52C,0.64
8,C29A A52G,0.77
9,C29G C39A,0.213
10,C29A G30C,0.205
11,C29A G30A,0.264
12,C29A G30U,0.216
13,C29G A52U,0.504
14,C29G A52G,0.53
15,G28U C39A,0.103
16,G28U C39G,0.206
17,G28U C34A,0.181
18,G28U G68C,0.243
19,C29A U67A,0.668
20,C29A U67C,0.736
21,C29G A42U,0.385
22,C29G A42G,0.445
23,G28U C54G,0.158
24,G28U C54A,0.144

row,Variant,self-cleavage
1,G28U U62G,0.189
2,G28U U62A,0.216
3,G28U G48A,0.255
4,C29A A59G,0.715
5,C29A U43A,0.32
6,C29A U36A,0.215
7,C29A U36C,0.428
8,C29G A60U,0.204
9,C29G A60G,0.337
10,C29G A60C,0.108
11,G28U G30C,0.166
12,G28U G30A,0.14
13,G28U G30U,0.183
14,C29G C33G,0.16
15,C29G C33A,0.212
16,C29A C45U,0.731
17,C29A C33A,0.373
18,G28U U46A,0.163
19,G28U U46C,0.19
20,G28U U46G,0.187
21,C29A A51U,0.646
22,C29A A51G,0.706
23,C29A C57G,0.225
24,C29A C57A,0.279

row,Variant,self-cleavage
1,G28U C33A,0.21
2,G28U C33G,0.196
3,C29A G58A,0.435
4,C29A U46G,0.759
5,C29A C63A,0.355
6,C29A C63G,0.286
7,G28U G47U,0.151
8,G28U G47A,0.173
9,G28U G47C,0.205
10,C29A G48A,0.777
11,C29A G48U,0.755
12,C29A G48C,0.728
13,C29A U61A,0.543
14,C29G C34G,0.294
15,C29A U38G,0.218
16,C29A U38A,0.365
17,C29A U38C,0.385
18,G28U U53G,0.22
19,G28U U53A,0.188
20,G28U C35G,0.14
21,G28U C35A,0.172
22,C29A G31A,0.296
23,C29A G31C,0.175
24,C29A G31U,0.221

row,Variant,self-cleavage
1,G28U G41C,0.163
2,G28U G41U,0.155
3,G28U G41A,0.166
4,G28U U38A,0.164
5,G28U U38G,0.161
6,G28U U38C,0.136
7,G28U G58C,0.177
8,G28U G58A,0.185
9,G28U C32A,0.236
10,C29A C32G,0.155
11,C29A C32U,0.698
12,C29G A40G,0.457
13,C29G A40C,0.157
14,C29G A40U,0.277
15,C29A U64A,0.223
16,C29A U64G,0.292
17,C29A U64C,0.25
18,C29A G65A,0.371
19,C29A G65C,0.392
20,C29A G65U,0.25
21,C29A A40C,0.214
22,C29A A40U,0.296
23,C29A A40G,0.607
